Assay results published in patent publication US20240376216A1 (NINGBO T MAXIMUM BIOPHARMACEUTICALS, published 2024).

Target: T1, IL13Rα2 on U251-LG target cells (UniProt Q14627 27-380, limits assumed)
T1 sequence (looked up): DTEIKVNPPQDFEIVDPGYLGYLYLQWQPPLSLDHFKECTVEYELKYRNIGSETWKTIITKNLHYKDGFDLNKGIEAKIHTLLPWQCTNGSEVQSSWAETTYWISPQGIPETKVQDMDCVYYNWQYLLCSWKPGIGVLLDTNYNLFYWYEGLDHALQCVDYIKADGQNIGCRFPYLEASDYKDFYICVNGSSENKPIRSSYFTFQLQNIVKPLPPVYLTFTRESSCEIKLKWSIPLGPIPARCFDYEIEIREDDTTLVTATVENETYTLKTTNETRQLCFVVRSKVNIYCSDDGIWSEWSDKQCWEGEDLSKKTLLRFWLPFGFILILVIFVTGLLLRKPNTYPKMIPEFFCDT
Assay: cell-based or functional assay

B1: anti-IL13Rα2 CAR VLVH (murine) (other)
chain: DIVMTQSHKFISTSVGDRVSITCKASQDVGTAVAWYQQIPGQSPKLLIYSASYRSTGIPDRFTGSGSGTDFSFIISSVQAEDLALYYCQHHYSAPWTFGGGTTLDIKGGGGSGGGGSGGGGSEVQLVESGGDLVRPGGSLQLSCAASGFTFSRNGMSWVRQTPDRRLEWVATVSSGGSYIYYADSVKGRFTISRDNARNTLYLQMSSLKSEDTAMYYCARQGTTALATRFFDVWGAGTTVTVSSFVPVFLPAKPTTTPAPRPPTPAPTIASQPLSLRPEACRPAAGGAVHTRGLDFACDIYIWAPLAGTCGVLLLSLVITLYCNHRNKRGRKKLLYIFKQPFMRPVQTTQEEDGCSCRFPEEEEGGCELRVKFSRSADAPAYQQGQNQLYNELNLGRREEYDVLDKRRGRDPEMGGKPRRKNPQEGLYNELQKDKMAEAYSEIGMKGERRRGKGHDGLYQGLSTATKDTYDALHMQALPPR
For B1, which “killing efficiency (lysis of target cells by luciferase activity, 24 h co-culture, effector-to-target ratio 2:1)” value is on record?
Its value is > 90%.
